Experiment [1] deals with Dipeptidyl peptidase 9 (DPP9), recombinant wild-type (human) (UniProt Q86TI2). Kind of experiment: cell-based or functional assay.
Experiment [2] shares this target. Kind of experiment: enzyme kinetics, GP-AMC hydrolysis by 25 nM recombinant DPP9 with 0, 5 or 20 µM peptide.
The target is the same in experiment [3]. The experiment in a line: ratio of Ki values for DPP9, reference EIL peptide.
The target in experiment [4] is Dipeptidyl peptidase 8 (DPP8), recombinant (human) (UniProt Q6V1X1). The experiment in a line: enzyme kinetics, GP-AMC hydrolysis by recombinant DPP8.
Experiment [5] has the same target. Kind of experiment: ratio of Ki values, DPP8 against DPP9.
Experiment [6] deals with Dipeptidyl peptidase 9 (DPP9), recombinant wild-type (human) (UniProt Q86TI2). Kind of experiment: enzyme kinetics, GP-AMC hydrolysis by recombinant DPP9.
The target of experiment [7] is Dipeptidyl peptidase 8 (DPP8), recombinant (human) (UniProt Q6V1X1). Kind of experiment: cell-based or functional assay.

Dipeptidyl peptidase 9 (DPP9), recombinant wild-type (human), sequence (Q86TI2 other isoform, or with tags, fused parts or gaps limits assumed, form in doubt): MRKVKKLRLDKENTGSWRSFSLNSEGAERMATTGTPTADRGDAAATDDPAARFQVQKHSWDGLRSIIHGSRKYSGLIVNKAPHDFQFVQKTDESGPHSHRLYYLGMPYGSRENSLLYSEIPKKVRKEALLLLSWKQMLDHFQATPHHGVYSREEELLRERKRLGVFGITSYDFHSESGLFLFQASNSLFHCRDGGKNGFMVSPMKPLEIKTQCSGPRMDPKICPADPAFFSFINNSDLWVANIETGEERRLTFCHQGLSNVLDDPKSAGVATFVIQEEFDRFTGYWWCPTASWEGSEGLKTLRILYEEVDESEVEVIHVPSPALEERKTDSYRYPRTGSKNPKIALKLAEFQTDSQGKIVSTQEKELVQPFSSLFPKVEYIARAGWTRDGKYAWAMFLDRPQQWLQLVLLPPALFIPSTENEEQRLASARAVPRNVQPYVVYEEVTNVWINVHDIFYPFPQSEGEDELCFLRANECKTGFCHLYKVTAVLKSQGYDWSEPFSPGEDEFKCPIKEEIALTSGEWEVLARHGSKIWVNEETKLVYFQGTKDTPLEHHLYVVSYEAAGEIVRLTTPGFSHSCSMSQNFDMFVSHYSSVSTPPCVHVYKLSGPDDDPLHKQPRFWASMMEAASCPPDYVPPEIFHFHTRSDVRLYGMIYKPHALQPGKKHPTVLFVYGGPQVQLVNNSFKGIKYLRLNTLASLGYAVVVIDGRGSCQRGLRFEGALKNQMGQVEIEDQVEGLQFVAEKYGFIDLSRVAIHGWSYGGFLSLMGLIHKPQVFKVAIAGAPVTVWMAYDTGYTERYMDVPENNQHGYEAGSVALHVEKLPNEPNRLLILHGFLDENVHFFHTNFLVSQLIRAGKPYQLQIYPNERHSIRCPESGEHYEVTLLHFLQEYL
Dipeptidyl peptidase 8 (DPP8), recombinant (human), sequence (Q6V1X1 whole entry, form in doubt): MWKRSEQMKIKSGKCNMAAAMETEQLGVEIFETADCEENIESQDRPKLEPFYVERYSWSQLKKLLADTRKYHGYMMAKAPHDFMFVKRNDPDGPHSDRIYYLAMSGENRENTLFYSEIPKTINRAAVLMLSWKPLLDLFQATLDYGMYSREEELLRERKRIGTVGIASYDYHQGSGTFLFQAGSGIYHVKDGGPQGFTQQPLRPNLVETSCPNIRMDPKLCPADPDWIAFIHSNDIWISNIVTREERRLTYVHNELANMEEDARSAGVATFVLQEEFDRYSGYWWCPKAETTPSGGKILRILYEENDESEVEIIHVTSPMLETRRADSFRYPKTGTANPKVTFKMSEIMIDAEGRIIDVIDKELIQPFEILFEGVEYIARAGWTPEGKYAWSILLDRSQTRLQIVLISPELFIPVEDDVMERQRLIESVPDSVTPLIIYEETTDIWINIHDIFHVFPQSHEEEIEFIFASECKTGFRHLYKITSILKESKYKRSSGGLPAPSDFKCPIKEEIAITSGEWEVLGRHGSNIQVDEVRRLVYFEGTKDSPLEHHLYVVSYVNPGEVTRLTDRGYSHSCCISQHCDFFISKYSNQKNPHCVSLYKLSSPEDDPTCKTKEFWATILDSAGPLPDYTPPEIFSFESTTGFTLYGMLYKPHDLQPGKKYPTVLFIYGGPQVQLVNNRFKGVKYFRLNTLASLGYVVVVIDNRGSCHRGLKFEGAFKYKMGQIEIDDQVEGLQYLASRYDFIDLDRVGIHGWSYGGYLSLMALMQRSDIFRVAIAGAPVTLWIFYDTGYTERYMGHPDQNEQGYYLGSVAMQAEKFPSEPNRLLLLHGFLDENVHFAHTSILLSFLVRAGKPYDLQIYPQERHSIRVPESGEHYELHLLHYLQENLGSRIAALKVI

Usually Ki stands for a measure of affinity in units of concentration, obtained from inhibition or displacement. On to SLRFLFEG (SEQ ID NO: 37) (peptide), for which the % DPP9 activity (Mean), 10 µM peptide in experiment [1] turned out to be 24.1%. The Ki in experiment [2] was 2000 nM.
As to SLRFLYEG (SEQ ID NO: 38) (peptide), the fold increased efficiency compared to the EIL peptide in experiment [3] came to 18.5 fold. In addition, in experiment [1], the % DPP9 activity (Mean), 10 µM peptide amounted to 10.9%. Further, the Ki in experiment [4] came to 3600 nM; in experiment [6] it was 400 nM. Besides, in experiment [5], the fold lower affinity compared to DPP9 was 9 fold.
On to SUMO1 (from UniProt P63165 1-97), for which the AMC release from GP-AMC in the unbound fraction (depleted lysates) in experiment [7] and in experiment [1] was 40% throughout.

The values above are taken from patent publication US20150266922A1.
